Experimental data taken from US20220073643A1.
Residue numbers refer to the chain shown, from its start.

B1: 409G10G6 (antibody, V domains shown)
VH: DVQLVESGGGLVQPGGSRKLSCAASGFTFSGFGMHWIRQTPEKGLEWVAYISSDSRPIYYADTVKGRFTISRDNPKNTLFLQMTSLRSEDTAMYFCGRFYYGNSFDHWGQGTLVTVSA
VL: DIVMTQSPSFLTVTAGEKVTLSCRSSQSLLNSGNQRNYLTWYQQKPGQPPKLLIYWASTRESGVPDRFTGSGSGTDFTLTISSVQAEDRALYYCQNAYSFPLTFGTGTKLELR
B2: 419A5F3 (antibody, V domains shown)
VH: B1 VH
VL: B1 VL
B3: 411A6E3 (antibody, V domains shown)
VH: B1 VH with G31D, D54G, G97V, Y101F
VL: B1 VL with L21M, S22T, S28N, Q35L, R36K, Y55S, A86P, R89L, T106A, R113K
B4: 420F12G8 (antibody, V domains shown)
VH: B1 VH with T28A, D54G, G97V
VL: B1 VL with L21M, S22T, S28N, R36K, Y55S, A86P, R89L, L102F, T106A, R113K
B5: 417A6F11 (antibody, V domains shown)
VH: EVQLQQSGPELVKPGASMKISCKASGYSFTGYTMNWVKQSHGKNLEWIGLINPYNGGTSYNQKFKGKATLTVDKSSSTAYMELLSLTSEDSAVYYCARGDYWGQGTTLTVSS
VL: DIVMTQSPSSLTVTAGEKVTMSCKSSQSLLNSGNQKNYLTWYQQKPGQPPKLLIYWASTRESGVPDRFTGSGSGTDFTLTISSVQAEDLAVYYCQNDYSYPTFGAGTKLELK
B6: 420H7E6 (antibody, V domains shown)
VH: DVQLVESGGGLVQPGGSRKLSCVTSGFTFSSFGMHWIRQAPEKGLEWVAFISGGGSPIFYADSVKGRFTVSRDNPKNTLFLQMTGLRSEDTAMYFCARFYFGNSFAYWGQGTLVTVSA
VL: DIVMAQSPSSLTVTAGEKVTMNCRSSQSLFNSGNQKNYLTWYQQKPGQPPKLLIYWASTRESGVPVRFTGSGSGTDFTLTISSVQAEDLAVYYCQTGFSYPLTFGPGTKLELK
B7: 423C10E1 (antibody, V domains shown)
VH: B6 VH with I37V
VL: B6 VL with A5T, P49S, G97S, S99N
B8: 200A4H8 (antibody, V domains shown)
VH: QVQLKQSGPGLVQPSQSLSITCTVSGFSLTRYGVHWVRQSPGKGLEWLGVIWSGGNTDYNAAFISRLNIRKDNSKSQVFFKMNSLKPNDTAIYYCARAAYFGNSFDYWGQGTTLTVSS
VL: DIVMTQSPSSLPVTAGEKVTMSCKSSQSLLNSGNQKNYLTWYQQKPGQPPKLLIYWASTRDSGVPDRFTGSGSGTDFTLTISSVQAEDLAVYYCQNNYIYPLTFGAGTKLELK
B9: 410A9A9 (antibody, V domains shown)
VH: B1 VH with G31S, I37V, T40A, D54G, R56S, G97A, R98T, D106A, H107Y
VL: B8 VL with P12T, S28T, P46S, D61E, N97A, I99S, L102V, A106S, L110V
B10: 422E8F9 (antibody, V domains shown)
VH: B1 VH with D54G, K65Q, G97A, A118S
VL: B1 VL with L21M, R24K, R36K, R89L, T106A, R113K
B11: 412B6E4 (antibody, V domains shown)
VH: DVQLVESGGGLVQPGGSRKLSCAASGFTFSSFGVHWVRQAPEKGLEWVAYISSGSSTIYYAHSVKGRFTISRDNPKNTLFLQMTSLGSEDTATYYCARFYYGNSFAYWGQGTLVTVSA
VL: B8 VL with P12T, L52M, D61E, N97A, I99T, K109R
B12: 413B1C9 (antibody, V domains shown)
VH: B1 VH with G31S, I37V, T40A, D54G, R56S, G97A
VL: B8 VL with P12T, A15T, T20S, L30F, S32R, N37S, D61E
B13: 203A6D5 (antibody, V domains shown)
VH: B8 VH
VL: B8 VL
B14: 410H6H3 (antibody, V domains shown)
VH: DVLLVESGGGLVQPGGSRKLSCAASGFTFSSSGMHWVRQAPEKGLEWVAYISSGSNTIYYADTLKGRFTISRDNPKNTLFLQMTSLRSEDTAMYYCARIYYGNSFVYWGQGTLVTVSA
VL: B8 VL with P12T, T20I, L52M, D61E, T69R, I99Y, A106T, E111A
B15: 421H4G3 (antibody, V domains shown)
VH: B1 VH with T28S, M34L, D54G, G97A, Y101F, A118T
VL: B1 VL with L21M, S82N, R89L, T106A, R113K
B16: 416F12F3 (antibody, V domains shown)
VH: B11 VH with V34M, T93M
VL: B8 VL with P12T, M21L, L52M, D61E, N97A, I99T, K109R
B17: 420D5H5 (antibody, V domains shown)
VH: B1 VH with F29L, D54G, A61V, K65E, G97A, A118S
VL: B1 VL with L21M, R24K, R36K, S82R, S83G, R89L, T106A, R113K
B18: 420H3H9 (antibody, V domains shown)
VH: B11 VH with V34M, T93M
VL: B8 VL with P12T, M21L, L52M, D61E, V91D, N97A, I99T, K109R
B19: 413C12F8 (antibody, V domains shown)
VH: B1 VH with M34V, S52G, D54G, G97A
VL: B1 VL with L21M, S22N, R36K, K45R, R89L, T106A, R113K
B20: 414H6G2 (antibody, V domains shown)
VH: B1 VH with P41A, D54G, K65Q, G97A
VL: B1 VL with L21M, R24K, R36K, R89L, T106A, R113K
B21: 418B8B10 (antibody, V domains shown)
VH: B1 VH with G31S, I37V, T40A, D54G, R56S, A61T, G97A
VL: B8 VL with P12T, T20S, L30F, S32R, N37S, K45R, D61E
B22: 420G10G3 (antibody, V domains shown)
VH: B1 VH with P41A, D54G, K65Q, G97A
VL: B1 VL with L21M, R24K, R36K, R89L, T106A, R113K
B23: 419A10D4 (antibody, V domains shown)
VH: B1 VH with D54G, G97A
VL: B1 VL with L21M, R24K, I81V, R89L, T106A, R113K
B24: 411G3E10 (antibody, V domains shown)
VH: B1 VH with D54G, G97A
VL: B1 VL with L21M, S22N, R36K, R89L, T106A, R113K
B25: 411B4G4 (antibody, V domains shown)
VH: B1 VH with M34L, D54G, G97A
VL: B1 VL with L21M, R89L, T106A, R113K
B26: 422F4B6 (antibody, V domains shown)
VH: B14 VH with L3Q, T28S, S32F, N56S, T57P, L64V, T69I, Y95F, V106A
VL: B8 VL with P12T, S28T, D61E, N97A, I99S, A106S
B27: 203A6C9 (antibody, V domains shown)
VH: B8 VH
VL: B8 VL
B28: 414A5F7 (antibody, V domains shown)
VH: B14 VH with L3Q, S32F, N56S, T57P, L64V, Y95F, V106A
VL: B8 VL with P12T, T20A, S28T, I54L, D61E, N97A, I99Y, A106S
B29: 409D1A7 (antibody, V domains shown)
VH: B1 VH with D54G, Q82H, G97A
VL: B1 VL with L21M, S22N, R24K, R89L, T106A, R113N
B30: 201F4H6 (antibody, V domains shown)
VH: QVQLKESGPGLVAPSQSLSITCTVSGFSLTSYGVSWVRQPPGKGLECLGVIWAGGNTNYNSALMSRLSISKDKSKSQVFLKMNSLQTDDTAMYYCARVYYGNAMDYWGQGTSVTVSS
VL: DIVMTQSPSSLTVTAGEKVTMSCKSSQSLLNSGNQKSYLTWYQQRPGQPPKLLIYWASTRESGVPDRFTGSGSGTDFTLTISSVQAEDLAVYFCQNVYFFPFTFGSGTKLETK

Target: Claudin18.2-His protein (human)
Assay: indirect ELISA on coated Claudin18.2-His

Row | Binder | EC50 [ng/mL]
1 | B1 | 9.52
2 | B2 | 5.51
3 | B3 | 6.74
4 | B4 | 17.6
5 | B5 | 42.8
6 | B6 | 54.5
7 | B7 | 29.7
8 | B8 | 10.5
9 | B9 | 20.8
10 | B10 | 8.73
11 | B11 | 6.31
12 | B12 | 3.46
13 | B13 | 27.1
14 | B14 | 2.93
15 | B15 | 7.53
16 | B16 | 11.5
17 | B17 | 23.9
18 | B18 | 7.22
19 | B19 | 6.82
20 | B20 | 11.6
21 | B21 | 8.87
22 | B22 | 11.3
23 | B23 | 6.53
24 | B24 | 5.43
25 | B25 | 9.45
26 | B26 | 149
27 | B27 | 65.4
28 | B28 | 8.05
29 | B29 | 7.75
30 | B30 | 119
